Test results published in patent US20260274955A1 (JANUX THERAPEUTICS, published 2026).

B1: Phage-148 (peptide)
peptide: YCDGHAPEYMEKCM
B2: Phage-37 (peptide)
peptide: YCEGHSSEYIQKCL
B3: Phage-95 (peptide)
peptide: YCDGHTLEYMWKCL
B4: Phage-88 (peptide)
peptide: YCDGHEPQYMLKCL
B5: Phage-98 (peptide)
peptide: YCAGHSPEHMWKCL
B6: Phage-90 (peptide)
peptide: YCEGHTMEYMWKCL
B7: Phage-38 (peptide)
peptide: HCSGHHWLQVWKCF
B8: Phage-39 (peptide)
peptide: YCWSHSPPFIKKCY
B9: Phage-149 (peptide)
peptide: YCEGHTVEYMAKCL
B10: Phage-99 (peptide)
peptide: YCEGHSEEYISKCL
B11: Phage-67 (peptide)
peptide: YCEGHTAEYMQKCL
B12: Phage-41 (peptide)
peptide: YCEGHLPEYLEKCV
B13: Phage-36 (peptide)
peptide: YCEGHSQEYLWKCL
B14: Phage-141 (peptide)
peptide: YCDGHRGEYLQKCL
B15: Phage-92 (peptide)
peptide: YCDGHSPQYIEKCL
B16: Phage-65 (peptide)
peptide: YCAGHMPEYMAKCL
B17: Phage-145 (peptide)
peptide: YCDGHIEEYRAKCL
B18: Phage-32 (peptide)
peptide: YCEGHSQENIWKCL
B19: Phage-91 (peptide)
peptide: YCAGHLPEYMPHCI
B20: Phage-70 (peptide)
peptide: YCDGHSWEYIGKCL
B21: Phage-1109 (peptide)
peptide: TCAAGASWEWPACL
B22: Phage-1111 (peptide)
peptide: TCAAGAHYTWPTCL
B23: Phage-1107 (peptide)
peptide: TCAAGVHFGWPLCF
B24: Phage-1110 (peptide)
peptide: TCAAGAMYQWPECF
B25: Phage-1103 (peptide)
peptide: QCAAGAMWTWPVCF
B26: Phage-1179 (peptide)
peptide: RCAAGAMWTWPACF
B27: Phage-1100 (peptide)
peptide: SCAAGAHYKWPVCI
B28: Phage-1101 (peptide)
peptide: ICAAGFIWSWPACF
B29: Phage-1187 (peptide)
peptide: TCSAGATYSWPSCF
B30: Phage-1102 (peptide)
peptide: TCAAGATYSWPDCF
B31: Phage-1125 (peptide)
peptide: TCSAGATYTWPSCF
B32: Phage-1112 (peptide)
peptide: TCSAGATYKWPVCL
B33: Phage-1108 (peptide)
peptide: TCAAGATYTWPTCF
B34: Phage-1105 (peptide)
peptide: PCAAGAMWAWPYCL
B35: Phage-1104 (peptide)
peptide: TCAAGAHYLWPHCL

What follows are binders tested against Anti-CD28 Fab (SEQ ID NOs: 202, 203) (assay: phage binding ELISA on captured Fab;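 note: clonal phage supernatants added briefly to wells pre-incubated with CD28 antigen or with blocking buffer only, then washed, bound phage read by ELISA using HRP-coupled anti-M13 antibody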).
Chain of Anti-CD28 Fab (SEQ ID NOs: 202, 203) (VH, as listed by the source, chain 1 of 2): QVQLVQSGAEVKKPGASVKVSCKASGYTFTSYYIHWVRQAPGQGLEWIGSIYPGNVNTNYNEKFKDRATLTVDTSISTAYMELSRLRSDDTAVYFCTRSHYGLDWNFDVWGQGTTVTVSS
Chain of Anti-CD28 Fab (SEQ ID NOs: 202, 203) (VL, as listed by the source, chain 2 of 2): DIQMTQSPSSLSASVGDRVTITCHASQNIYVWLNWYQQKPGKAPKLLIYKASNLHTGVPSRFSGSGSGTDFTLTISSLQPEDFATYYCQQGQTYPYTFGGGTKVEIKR
Procedure: (§1) Clonal phage were harvested as crude supernatants and screened via standard ELISAs. […] Prior to the addition of clonal phage, wells were incubated with blocking buffer and CD28 antigen or blocking buffer alone. Without washing or aspirating, clonal phage supernatants were then added to the wells and incubated for a short time. Wells were then washed followed by detection of bound phage using a horse radish conjugated anti-M13 antibody.
With B1 the “Anti-CD28 Fab signal” value was 2.21. With B2 the “Anti-CD28 Fab signal” value was 2.25. With B3 the “Anti-CD28 Fab signal” value was 2.31. For B4, the “Anti-CD28 Fab signal” value was 2.32. For B5, the “Anti-CD28 Fab signal” value was 2.3. With B6 the “Anti-CD28 Fab signal” value was 2.31. With B7 the “Anti-CD28 Fab signal” value was 2.31. With B8 the “Anti-CD28 Fab signal” value was 2.06. For B9, the “Anti-CD28 Fab signal” value was 2.2. In the case of B10, the “Anti-CD28 Fab signal” value is reported as 2.3. With B11 the “Anti-CD28 Fab signal” value was 2.38. In the case of B12, the “Anti-CD28 Fab signal” value is reported as 2.11. For B13, the “Anti-CD28 Fab signal” value was 2.36. B14 was tested, and the “Anti-CD28 Fab signal” value was 2.22. For B15, the “Anti-CD28 Fab signal” value was 2.31. For B16, the “Anti-CD28 Fab signal” value was 2.38. In the case of B17, the “Anti-CD28 Fab signal” value is reported as 2.21. In the case of B18, the “Anti-CD28 Fab signal” value is reported as 1.41. With B19 the “Anti-CD28 Fab signal” value was 2.31. In the case of B20, the “Anti-CD28 Fab signal” value is reported as 2.37.

Each binder was assayed against anti-CD28 Fab (SEQ ID NOs: 202, 203) (assay: phage ELISA, Fab on plate;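 note: ELISA of crude clonal phage supernatants on the plate, wells preloaded with CD28 antigen or only blocking buffer, captured phage read out via HRP-linked anti-M13 antibody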).
Chain of anti-CD28 Fab (SEQ ID NOs: 202, 203) (VH, as listed by the source, chain 1 of 2): as the sequence (VH, as listed by the source, chain 1 of 2) above
Chain of anti-CD28 Fab (SEQ ID NOs: 202, 203) (VL, as listed by the source, chain 2 of 2): as the sequence (VL, as listed by the source, chain 2 of 2) above
Procedure: (§2) After panning, phage infected bacteria were plated out and colonies picked into 96 well blocks. Clonal phage was then amplified and separated from bacterial cells via centrifugation.
(§3) Clonal phage were harvested as crude supernatants and screened via standard ELISAs. […] Prior to the addition of clonal phage, wells were incubated with blocking buffer and CD28 antigen or blocking buffer alone. Without washing or aspirating, clonal phage supernatants were then added to the wells and incubated for a short time. Wells were then washed followed by detection of bound phage using a horse radish conjugated anti-M13 antibody. Clonal phage of interest were then sent for sequence analysis.
For B21, the “Anti-CD28 Fab signal” value was 1.48. For B22, the “Anti-CD28 Fab signal” value was 1.47. B23 was tested, and the “Anti-CD28 Fab signal” value was 1.49. In the case of B24, the “Anti-CD28 Fab signal” value is reported as 1.48. With B25 the “Anti-CD28 Fab signal” value was 1.5. In the case of B26, the “Anti-CD28 Fab signal” value is reported as 1.25. B27 was tested, and the “Anti-CD28 Fab signal” value was 1.51. With B28 the “Anti-CD28 Fab signal” value was 1.51. With B29 the “Anti-CD28 Fab signal” value was 1.21. B30 was tested, and the “Anti-CD28 Fab signal” value was 1.51. In the case of B31, the “Anti-CD28 Fab signal” value is reported as 1.42. In the case of B32, the “Anti-CD28 Fab signal” value is reported as 1.47. With B33 the “Anti-CD28 Fab signal” value was 1.48. B34 was tested, and the “Anti-CD28 Fab signal” value was 1.49. B35 was tested, and the “Anti-CD28 Fab signal” value was 1.5.

What follows are binders tested against anti-CD28 Fab (SEQ ID NOs: 202, 203) (assay: phage ELISA, Fab on plate, CD28 antigen as competitor;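 note: wells pre-incubated with CD28 antigen in blocking buffer (reference: blocking buffer only) before adding crude clonal phage supernatant, bound phage read with HRP-coupled anti-M13 antibody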).
Procedure: as §2, §3
For B21, the “Anti-CD28 Fab signal in the presence of CD28” value (shortened to “Anti-CD28 Fab signal … of CD28”) was 0.08. With B22 the “Anti-CD28 Fab signal … of CD28” value was 0.07. In the case of B23, the “Anti-CD28 Fab signal … of CD28” value is reported as 0.07. For B24, the “Anti-CD28 Fab signal … of CD28” value was 0.06. For B25, the “Anti-CD28 Fab signal … of CD28” value was 0.07. B26 was tested, and the “Anti-CD28 Fab signal … of CD28” value was 0.06. B27 was tested, and the “Anti-CD28 Fab signal … of CD28” value was 0.06. In the case of B28, the “Anti-CD28 Fab signal … of CD28” value is reported as 0.08. For B29, the “Anti-CD28 Fab signal … of CD28” value was 0.09. With B30 the “Anti-CD28 Fab signal … of CD28” value was 0.06. In the case of B31, the “Anti-CD28 Fab signal … of CD28” value is reported as 0.06. In the case of B32, the “Anti-CD28 Fab signal … of CD28” value is reported as 0.06. In the case of B33, the “Anti-CD28 Fab signal … of CD28” value is reported as 0.05. B34 was tested, and the “Anti-CD28 Fab signal … of CD28” value was 0.05. With B35 the “Anti-CD28 Fab signal … of CD28” value was 0.12.

These binders were tested against Anti-CD28 Fab (SEQ ID NOs: 202, 203) (assay: phage binding ELISA on captured Fab; competitor CD28 antigen;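 for Anti-CD28 Fab signal in the presence of CD28: wells pretreated with CD28 antigen in blocking buffer or buffer only, then clonal phage supernatants added briefly without washing, bound phage detected via horseradish-conjugated anti-M13 antibody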).
Procedure: as §1
B1 was tested, and the “Anti-CD28 Fab signal … of CD28” value was 0.07. For B2, the “Anti-CD28 Fab signal … of CD28” value was 0.1. With B3 the “Anti-CD28 Fab signal … of CD28” value was 0.13. With B4 the “Anti-CD28 Fab signal … of CD28” value was 0.12. B5 was tested, and the “Anti-CD28 Fab signal … of CD28” value was 0.06. With B6 the “Anti-CD28 Fab signal … of CD28” value was 0.07. For B7, the “Anti-CD28 Fab signal … of CD28” value was 0.07. With B8 the “Anti-CD28 Fab signal … of CD28” value was 0.06. With B9 the “Anti-CD28 Fab signal … of CD28” value was 0.08. In the case of B10, the “Anti-CD28 Fab signal … of CD28” value is reported as 0.08. B11 was tested, and the “Anti-CD28 Fab signal … of CD28” value was 0.08. In the case of B12, the “Anti-CD28 Fab signal … of CD28” value is reported as 0.06. With B13 the “Anti-CD28 Fab signal … of CD28” value was 0.07. With B14 the “Anti-CD28 Fab signal … of CD28” value was 0.09. B15 was tested, and the “Anti-CD28 Fab signal … of CD28” value was 0.07. For B16, the “Anti-CD28 Fab signal … of CD28” value was 0.11. B17 was tested, and the “Anti-CD28 Fab signal … of CD28” value was 0.07. In the case of B18, the “Anti-CD28 Fab signal … of CD28” value is reported as 0.07. With B19 the “Anti-CD28 Fab signal … of CD28” value was 0.09. With B20 the “Anti-CD28 Fab signal … of CD28” value was 0.07.
